Results from US20080125362A1, “Method of screening compound preventing cells from infection with Hepatitis C virus (HCV)” (Japan Tobacco Inc., priority 2004, published 2008).

B1: human FGF 17: human-derived fibroblast growth factor 17, commercial product of Pepro Tech (protein)
chain: TQGENHPSPNFNQYVRDQGAMTDQLSRRQIREYQLYSRTSGKHVQVTGRRISATAEDGNKFAKLIVETDTFGSRVRIKGAESEKYICMNKRGKLIGKPSGKSKDCVFTEIVLENNYTAFQNARHEGWFMAFTRQGRPRQASRSRQNQREAHFIKRLYQGQLPFPNHAEKQKQFEFVGSAPTRRTKRTRRPQPLT
B2: human FGF 8: human-derived fibroblast growth factor 8, commercial product of Pepro Tech (protein)
chain: QVTVQSSPNFTQHVREQSLVTDQLSRRLIRTYQLYSRTSGKHVQVLANKRINAMAEDGDPFAKLIVETDTFGSRVRVRGAETGLYICMNKKGKLIAKSNGKGKDCVFTEIVLENNYTALQNAKYEGWYMAFTRKGRPRKGSKTRQHQREVHFMKRLPRGHHTTEQSLRFEFLNYPPFTRSLRGSQRTWAPEPR
B3: human FGF 7 (KGF): human-derived fibroblast growth factor 7 (KGF), commercial product of Pepro Tech (protein)
chain: CNDMTPEQMATNVNCSSPERHTRSYDYMEGGDIRVRRLFCRTQWYLRIDKRGKVKGTQEMKNNYNIMEIRTVAVGIVAIKGVESEFYLAMNKEGKLYAKKECNEDCNFKELILENHYNTYASAKWTHNGGEMFVALNQKGIPVRGKKTKKEQKTAHFLPMAIT
B4: human FGF 10: human-derived fibroblast growth factor 10, commercial product of Pepro Tech (protein)
chain: LGQDMVSPEATNSSSSSFSSPSSAGRHVRSYNHLQGDVRWRKLFSFTKYFLKIEKNGKVSGTKKENCPYSILEITSVEIGVVAVKAINSNYYLAMNKKGKLYGSKEFNNDCKLKERIEENGYNTYASFNWQHNGRQMYVALNGKGAPRRGQKTRRKNTSAHFLPMVVHS

Experiments:
ΔG/SEAP/HCV E1E2 [1] = test: Effects of FGF family members on infectivity of pseudotyped HCV to HepG2 cells (SEAP reporter); type: cell-based; conditions: for IC50 ΔG/SEAP/HCV E1E2: growth factor added 1 hour before virus, SEAP in supernatant after 24 hours; for infection of ΔG/SEAP/HCV E1E2: result in words
ΔG/SEAP/HCV E1E2 [2] = test: Effects of solubilized FGFR-1 to FGFR-4 (FGFR/Fc) on infectivity of pseudotyped HCV to HepG2 cells; type: cell-based; conditions: FGFR/Fc mixed with virus 1 hour before inoculation, FIG. 5

Row | Molecule | IC50 ΔG/SEAP/HCV E1E2 (ΔG/SEAP/HCV E1E2 [1]) [µg/mL] | infection of ΔG/SEAP/HCV E1E2 (ΔG/SEAP/HCV E1E2 [1]) | infectivity of ΔG/SEAP/HCV E1E2 (ΔG/SEAP/HCV E1E2 [2])
1 | human FGF 2 (basic): human-derived fibroblast growth factor 2 (basic), commercial product of Pepro Tech | 1.36 | inhibited | –
2 | FGFR-4 | – | – | inhibited
3 | human FGF 20: human-derived fibroblast growth factor 20, commercial product of Pepro Tech | >10 | – | –
4 | human FGF 18: human-derived fibroblast growth factor 18, commercial product of Pepro Tech | >10 | – | –
5 | B1 | 7.41 | inhibited | –
6 | B2 | 8.51 | inhibited | –
7 | B3 | 2.32 | inhibited | –
8 | B4 | >10 | – | –
